Tests used:
[1] = molecular target: αM/αLβ2 chimera (UniProt P05107); assay: flow cytometry on cells
[2] = molecular target: recombinant purified β2 integrin subunit (UniProt P05107); assay: ELISA
[3] = molecular target: recombinant purified αM integrin subunit (UniProt P11215); assay: ELISA
[4] = molecular target: integrin αMβ2 on human PMNs (human (endogenous in PMNs)) (UniProt P11215)
[5] = molecular target: wild-type αMβ2 on transfected K562 cells (UniProt P11215); assay: flow cytometry on cells
[6] = molecular target: αMβ2(728Δ) (UniProt P11215); assay: flow cytometry on cells
[7] = molecular target: αM(1119Δ)β2 (UniProt P11215); assay: flow cytometry on cells
[8] = molecular target: recombinant purified integrin αMβ2 (UniProt P11215); assay: ELISA

Chain of Ang(1–4), angiostatin composed of four kringle domains of Plg (P00747 20-810): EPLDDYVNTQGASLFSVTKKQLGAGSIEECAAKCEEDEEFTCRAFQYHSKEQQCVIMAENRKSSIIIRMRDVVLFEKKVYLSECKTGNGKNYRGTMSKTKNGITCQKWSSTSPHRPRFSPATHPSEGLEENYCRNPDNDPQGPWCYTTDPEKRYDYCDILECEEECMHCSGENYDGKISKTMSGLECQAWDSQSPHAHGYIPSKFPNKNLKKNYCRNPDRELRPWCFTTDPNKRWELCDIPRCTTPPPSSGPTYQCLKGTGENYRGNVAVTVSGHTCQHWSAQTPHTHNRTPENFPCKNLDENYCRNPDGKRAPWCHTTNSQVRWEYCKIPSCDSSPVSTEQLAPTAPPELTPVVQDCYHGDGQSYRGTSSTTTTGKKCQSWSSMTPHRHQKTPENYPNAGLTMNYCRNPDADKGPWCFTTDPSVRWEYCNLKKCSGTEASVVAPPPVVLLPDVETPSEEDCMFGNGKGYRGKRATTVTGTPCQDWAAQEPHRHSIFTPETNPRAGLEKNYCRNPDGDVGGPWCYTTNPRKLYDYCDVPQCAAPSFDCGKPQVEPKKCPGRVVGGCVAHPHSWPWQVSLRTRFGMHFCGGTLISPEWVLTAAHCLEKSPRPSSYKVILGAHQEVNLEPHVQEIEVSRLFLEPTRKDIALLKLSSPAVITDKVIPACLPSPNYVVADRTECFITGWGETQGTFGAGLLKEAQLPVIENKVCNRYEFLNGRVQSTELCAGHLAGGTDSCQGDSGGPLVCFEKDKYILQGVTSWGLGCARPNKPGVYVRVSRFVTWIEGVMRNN

Substance: human fibrinogen (from UniProt P02671-2 20-644; P02675 31-491; P02679-2 27-437) (complex)
- MFI of bound ligand [1]: 129 MFI

Substance: plasminogen (Glutamic Plg) (ligand)
- Kd [2]: 500 nM
- Kd [3]: 100 nM
- PMN early/late apoptosis (% annexin V+ cells), 16 h, Plg 1 μM with NIF (50 nM) [4]: 90%
- MFI of bound ligand [5]: 130 MFI
- MFI of bound ligand [6]: 152 MFI
- MFI of bound ligand [7]: 145 MFI
- MFI of bound ligand [1]: 135 MFI

Substance: Ang(1–4), angiostatin composed of four kringle domains of Plg (from UniProt P00747 20-810) (domain or fragment)
- Kd [8]: 500 nM
- Kd [2]: > 100000 nM
- Kd [3]: 400 nM

From publication PMC2978023
